Experimental data reported in patent publication US20130133089A1 (MEDICAL RESEARCH INFRASTRUCTURE AND HEALTH SERVICES FUND OF …, published 2013).

Target: long form of human leptin receptor (hLEPR) on BAF/3 or H-49 (HEK-293) cells (human), P48357
Assay: cell-based or functional assay

long form of human leptin receptor (hLEPR) on BAF/3 or H-49 (HEK-293) cells (human), P48357, sequence (P48357 22-1165): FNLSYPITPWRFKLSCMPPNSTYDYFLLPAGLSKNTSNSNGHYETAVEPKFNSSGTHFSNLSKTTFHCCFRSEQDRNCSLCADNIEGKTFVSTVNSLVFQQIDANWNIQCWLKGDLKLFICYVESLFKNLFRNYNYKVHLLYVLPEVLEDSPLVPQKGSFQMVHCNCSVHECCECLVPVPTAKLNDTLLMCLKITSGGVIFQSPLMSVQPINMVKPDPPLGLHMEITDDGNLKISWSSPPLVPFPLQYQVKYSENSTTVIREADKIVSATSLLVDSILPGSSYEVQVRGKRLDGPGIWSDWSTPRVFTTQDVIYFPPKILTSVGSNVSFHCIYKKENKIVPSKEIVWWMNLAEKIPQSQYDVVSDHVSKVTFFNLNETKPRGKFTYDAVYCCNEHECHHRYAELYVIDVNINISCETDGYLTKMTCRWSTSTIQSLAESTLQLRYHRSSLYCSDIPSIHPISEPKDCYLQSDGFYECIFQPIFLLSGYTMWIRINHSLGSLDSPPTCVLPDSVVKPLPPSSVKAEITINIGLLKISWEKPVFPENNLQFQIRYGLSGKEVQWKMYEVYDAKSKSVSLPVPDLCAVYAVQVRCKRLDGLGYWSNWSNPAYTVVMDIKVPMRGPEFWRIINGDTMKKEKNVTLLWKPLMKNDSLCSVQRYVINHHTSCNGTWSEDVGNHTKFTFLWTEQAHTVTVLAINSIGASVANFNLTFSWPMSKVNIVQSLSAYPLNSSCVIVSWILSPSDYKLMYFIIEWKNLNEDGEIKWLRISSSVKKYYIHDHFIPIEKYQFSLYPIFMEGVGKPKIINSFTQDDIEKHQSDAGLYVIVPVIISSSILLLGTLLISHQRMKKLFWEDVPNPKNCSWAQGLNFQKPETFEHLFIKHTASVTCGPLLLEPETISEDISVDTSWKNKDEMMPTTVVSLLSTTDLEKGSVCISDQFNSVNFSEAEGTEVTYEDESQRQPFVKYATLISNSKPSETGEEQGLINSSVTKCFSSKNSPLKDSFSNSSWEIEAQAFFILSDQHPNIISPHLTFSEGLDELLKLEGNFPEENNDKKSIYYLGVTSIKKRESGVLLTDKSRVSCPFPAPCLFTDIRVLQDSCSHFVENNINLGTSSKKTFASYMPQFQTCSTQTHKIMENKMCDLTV

BAF/3 bioassay: fold increase in bioactivity as compared to the WT mouse leptin antagonist	Luciferase bioassay: fold increase in bioactivity as compared to the WT mouse leptin antagonist	Binder	other results
4.8 fold	4.2 fold	mouse leptin antagonist H15 (D23G, L68M, S97F, S132Y + L39A/D40A/F41A), P41160 22-167 (ligand) AVPIQKVQDDTKTLIKTIVTRINGISHTQSVSAKQRVTGAAAIPGLHPILSLSKMDQTLAVYQQVLTSMPSQNVLQIANDLENLRDLLHLLAFSKSCFLPQTSGLQKPESLDGVLEASLYSTEVVALSRLQGYLQDILQQLDVSPEC	–
–	–	recombinant mouse leptin mutein H12 (S97Y), agonist, P41160 22-167 (ligand) AVPIQKVQDDTKTLIKTIVTRINDISHTQSVSAKQRVTGLDFIPGLHPILSLSKMDQTLAVYQQVLTSLPSQNVLQIANDLENLRDLLHLLAFSKSCYLPQTSGLQKPESLDGVLEASLYSTEVVALSRLQGSLQDILQQLDVSPEC	BAF/3 bioassay: fold increase in bioactivity as compared to the WT mouse leptin: 0.9 fold; Luciferase bioassay: fold increase in bioactivity as compared to the WT mouse leptin: 0.7 fold
3.5 fold	2.9 fold	mouse leptin antagonist H19 (D23G, T37A, G44D + L39A/D40A/F41A), P41160 22-167 (ligand) AVPIQKVQDDTKTLIKTIVTRINGISHTQSVSAKQRVAGAAAIPDLHPILSLSKMDQTLAVYQQVLTSLPSQNVLQIANDLENLRDLLHLLAFSKSCSLPQTSGLQKPESLDGVLEASLYSTEVVALSRLQGSLQDILQQLDVSPEC	–
0.8 fold	0.1 fold	mouse leptin antagonist H12 (S97Y + L39A/D40A/F41A), P41160 22-167 (ligand) AVPIQKVQDDTKTLIKTIVTRINDISHTQSVSAKQRVTGAAAIPGLHPILSLSKMDQTLAVYQQVLTSLPSQNVLQIANDLENLRDLLHLLAFSKSCYLPQTSGLQKPESLDGVLEASLYSTEVVALSRLQGSLQDILQQLDVSPEC	–
–	–	recombinant mouse leptin mutein H15 (D23G, L68M, S97F, S132Y), agonist, P41160 22-167 (ligand) AVPIQKVQDDTKTLIKTIVTRINGISHTQSVSAKQRVTGLDFIPGLHPILSLSKMDQTLAVYQQVLTSMPSQNVLQIANDLENLRDLLHLLAFSKSCFLPQTSGLQKPESLDGVLEASLYSTEVVALSRLQGYLQDILQQLDVSPEC	BAF/3 bioassay: fold increase in bioactivity as compared to the WT mouse leptin: 0.5 fold; Luciferase bioassay: fold increase in bioactivity as compared to the WT mouse leptin: 0.8 fold
–	–	recombinant mouse leptin mutein H22 (T12I), agonist, P41160 22-167 (ligand) AVPIQKVQDDTKILIKTIVTRINDISHTQSVSAKQRVTGLDFIPGLHPILSLSKMDQTLAVYQQVLTSLPSQNVLQIANDLENLRDLLHLLAFSKSCSLPQTSGLQKPESLDGVLEASLYSTEVVALSRLQGSLQDILQQLDVSPEC	BAF/3 bioassay: fold increase in bioactivity as compared to the WT mouse leptin: 0.8 fold; Luciferase bioassay: fold increase in bioactivity as compared to the WT mouse leptin: 0.7 fold
–	–	pegylated mouse leptin antagonist (PEG-MLA), P41160 22-167 (ligand, here or on the partner: pegylated (method previously described for MLA; 20 kDa PEG, site not restated here)) AVPIQKVQDDTKTLIKTIVTRINDISHTQSVSAKQRVTGAAAIPGLHPILSLSKMDQTLAVYQQVLTSLPSQNVLQIANDLENLRDLLHLLAFSKSCSLPQTSGLQKPESLDGVLEASLYSTEVVALSRLQGSLQDILQQLDVSPEC	biological activity: fold reduction by pegylation of MLA: 7 fold
2.4 fold	3.3 fold	mouse leptin antagonist H22 (T12I + L39A/D40A/F41A), P41160 22-167 (ligand) AVPIQKVQDDTKILIKTIVTRINDISHTQSVSAKQRVTGAAAIPGLHPILSLSKMDQTLAVYQQVLTSLPSQNVLQIANDLENLRDLLHLLAFSKSCSLPQTSGLQKPESLDGVLEASLYSTEVVALSRLQGSLQDILQQLDVSPEC	–
3.3 fold	3.3 fold	mouse leptin antagonist H16 (D23G, G112S + L39A/D40A/F41A), P41160 22-167 (ligand) AVPIQKVQDDTKTLIKTIVTRINGISHTQSVSAKQRVTGAAAIPGLHPILSLSKMDQTLAVYQQVLTSLPSQNVLQIANDLENLRDLLHLLAFSKSCSLPQTSGLQKPESLDSVLEASLYSTEVVALSRLQGSLQDILQQLDVSPEC	–
13.9 fold	13.4 fold	superactive mouse leptin antagonist (SMLA), D23L/L39A/D40A/F41A mouse leptin, P41160 22-167 (ligand) VPIQKVQDDTKTLIKTLVTRINLISHTQSVSAKQRVTGAAAIPGLHPILSLSKMDQTLAVYQQVLTSLPSQNVLQIANDLENLRDLLHLLAFSKSCSLPQTSGLQKPESLDGVLEASLYSTEVVALSRLQGSLQDILQQVDLSPGC	biological (inhibitory) activity, FIG. 12A: fold higher than that of HLA: > 9 fold
–	–	pegylated superactive mouse leptin antagonist (PEG-SMLA), P41160 22-167 (ligand, here or on the partner: mPEG-propionyl-ALD 20 kDa, preferentially on the N-terminal amino group (85% monopegylated, ~9% double pegylated)) VPIQKVQDDTKTLIKTLVTRINLISHTQSVSAKQRVTGAAAIPGLHPILSLSKMDQTLAVYQQVLTSLPSQNVLQIANDLENLRDLLHLLAFSKSCSLPQTSGLQKPESLDGVLEASLYSTEVVALSRLQGSLQDILQQVDLSPGC	biological activity in H-49 cells: fold reduction as compared to the non-pegylated SMLA: 9 fold
